In paper PMC3034218 (Journal of molecular biology, 2004):
Blank lines part the entries; values can stand above or below the molecule they belong to.

B1: τ protein (τ subunit of the clamp-loader), B. subtilis, full-length (natural protein, UniProt P09122 1-563, looked up)
chain: MSYQALYRVFRPQRFEDVVGQEHITKTLQNALLQKKFSHAYLFSGPRGTGKTSAAKIFAKAVNCEHAPVDEPCNECAACKGITNGSISDVIEIDAASNNGVDEIRDIRDKVKFAPSAVTYKVYIIDEVHMLSIGAFNALLKTLEEPPEHCIFILATTEPHKIPLTIISRCQRFDFKRITSQAIVGRMNKIVDAEQLQVEEGSLEIIASAADGGMRDALSLLDQAISFSGDILKVEDALLITGAVSQLYIGKLAKSLHDKNVSDALETLNELLQQGKDPAKLIEDMIFYFRDMLLYKTAPGLEGVLEKVKVDETFRELSEQIPAQALYEMIDILNKSHQEMKWTNHPRIFFEVAVVKICQTSHQSAADLPEVDMLMKKIQQLEQEVERLKTTGIKAAAESPKKEAPRVPKGGKSNYKAPVGRIHEILKEATRPDLDLLRNSWGKLLAHLKQQNKVSHAALLNDSEPVAAGSAAFVLKFKYEIHCKMVAEDNNGVRTNLEQILESMLGKRMDLIGVPEAQWGKIREEFLEDHQQENEGSNEPAEEDPLIAEAKKLVGADLIEIKD
B2: His-tagged DnaB, Bacillus stearothermophilus (enzyme, UniProt Q9X4C9 1-454, looked up)
chain: MSELFSERIPPQSIEAEQAVLGAVFLDPAALVPASEILIPEDFYRAAHQKIFHAMLRVADRGEPVDLVTVTAELAASEQLEEIGGVSYLSELADAVPTAANVEYYARIVEEKSVLRRLIRTATSIAQDGYTREDEIDVLLDEADRKIMEVSQRKHSGAFKNIKDILVQTYDNIEMLHNRDGEITGIPTGFTELDRMTSGFQRSDLIIVAARPSVGKTAFALNIAQNVATKTNENVAIFSLEMSAQQLVMRMLCAEGNINAQNLRTGKLTPEDWGKLTMAMGSLSNAGIYIDDTPSIRVSDIRAKCRRLKQESGLGMIVIDYLQLIQGSGRSKENRQQEVSEISRSLKALARELEVPVIALSQLSRSVEQRQDKRPMMSDIRESGSIEQDADIVAFLYRDDYYNKDSENKNIIEIIIAKQRNGPVGTVQLAFIKEYNKFVNLERRFDEAQIPPGA

How the values were obtained:
[1] = molecular target: τ (Escherichia coli) (UniProt P06710); conditions: cited from earlier work
Chain of τ (Escherichia coli) (P06710 2-643): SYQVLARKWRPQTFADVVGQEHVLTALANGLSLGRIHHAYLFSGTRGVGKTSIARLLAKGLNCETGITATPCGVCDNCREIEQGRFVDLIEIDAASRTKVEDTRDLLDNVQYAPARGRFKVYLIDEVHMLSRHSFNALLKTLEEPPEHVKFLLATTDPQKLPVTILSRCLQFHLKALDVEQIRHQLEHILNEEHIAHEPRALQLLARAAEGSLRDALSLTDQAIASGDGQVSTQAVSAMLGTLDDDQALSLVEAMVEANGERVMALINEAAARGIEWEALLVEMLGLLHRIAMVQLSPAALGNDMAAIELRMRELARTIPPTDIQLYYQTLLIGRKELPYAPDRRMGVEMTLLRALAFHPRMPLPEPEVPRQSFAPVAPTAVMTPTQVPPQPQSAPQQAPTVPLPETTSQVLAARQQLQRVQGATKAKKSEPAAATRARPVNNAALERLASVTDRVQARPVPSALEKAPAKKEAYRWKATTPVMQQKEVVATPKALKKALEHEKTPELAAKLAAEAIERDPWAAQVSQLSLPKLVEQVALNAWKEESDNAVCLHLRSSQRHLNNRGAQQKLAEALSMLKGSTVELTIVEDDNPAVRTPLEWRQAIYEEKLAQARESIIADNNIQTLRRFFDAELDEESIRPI

[2] = molecular target: τ domain III, B. subtilis (B. subtilis); test: SEC
[3] = molecular target: the molecule itself; test: atomic force microscopy
[4] = molecular target: B1; test: SPR

Molecule: DnaB (from UniProt P0ACB0)
Kd [1]: 4 nM

stoichiometry N [2]: 2
Molecule: τ domain III, B. subtilis (domain or fragment)

Molecule: B1
binding result [3]: binds

Molecule: B2
Kd [4]: 2.3 nM
